Experimental data taken from publication PMC7072561.

Conditions: ubiquitination at K63

For ubiquitin (HA-tagged): ubiquitin K63R, the other was “decreases”.
